# Measurements reported in IntAct's records for PubMed 31695625.
# B1: Solute carrier family 2, facilitated glucose transporter member 9 (Homo sapiens), Q9NRM0-1 (parent)
# chain: MARKQNRNSKELGLVPLTDDTSHAGPPGPGRALLECDHLRSGVPGGRRRKDWSCSLLVASLAGAFGSSFLYGYNLSVVNAPTPYIKAFYNESWERRHGRPIDPDTLTLLWSVTVSIFAIGGLVGTLIVKMIGKVLGRKHTLLANNGFAISAALLMACSLQAGAFEMLIVGRFIMGIDGGVALSVLPMYLSEISPKEIRGSLGQVTAIFICIGVFTGQLLGLPELLGKESTWPYLFGVIVVPAVVQLLSLPFLPDSPRYLLLEKHNEARAVKAFQTFLGKADVSQEVEEVLAESRVQRSIRLVSVLELLRAPYVRWQVVTVIVTMACYQLCGLNAIWFYTNSIFGKAGIPPAKIPYVTLSTGGIETLAAVFSGLVIEHLGRRPLLIGGFGLMGLFFGTLTITLTLQDHAPWVPYLSIVGILAIIASFCSGPGGIPFILTGEFFQQSQRPAAFIIAGTVNWLSNFAVGLLFPFIQKSLDTYCFLVFATICITGAIYLYFVLPETKNRTYAEISQAFSKRNKAYPPEEKIDSAVTDGKINGRP
# B2: Solute carrier family 2, facilitated glucose transporter member 9 (Homo sapiens), Q9NRM0-2 (parent)
# chain: MKLSKKDRGEDEESDSAKKKLDWSCSLLVASLAGAFGSSFLYGYNLSVVNAPTPYIKAFYNESWERRHGRPIDPDTLTLLWSVTVSIFAIGGLVGTLIVKMIGKVLGRKHTLLANNGFAISAALLMACSLQAGAFEMLIVGRFIMGIDGGVALSVLPMYLSEISPKEIRGSLGQVTAIFICIGVFTGQLLGLPELLGKESTWPYLFGVIVVPAVVQLLSLPFLPDSPRYLLLEKHNEARAVKAFQTFLGKADVSQEVEEVLAESRVQRSIRLVSVLELLRAPYVRWQVVTVIVTMACYQLCGLNAIWFYTNSIFGKAGIPPAKIPYVTLSTGGIETLAAVFSGLVIEHLGRRPLLIGGFGLMGLFFGTLTITLTLQDHAPWVPYLSIVGILAIIASFCSGPGGIPFILTGEFFQQSQRPAAFIIAGTVNWLSNFAVGLLFPFIQKSLDTYCFLVFATICITGAIYLYFVLPETKNRTYAEISQAFSKRNKAYPPEEKIDSAVTDGKINGRP
# Variants of: B1
# Conditions: with itm2b_human ITM2B
row,Variant,effect of a mutation on the interaction
1,MARKQNRNSKELGLVPLTDDTSHAGPPGPGRALLECDHLRSGVPGGRRRKDWSCSLLVASLAGAFGSSFLYGYNLSVVNAPTPYIKAFYQESWERRHGRPIDPDTLTLLWSVTVSIFAIGGLVGTLIVKMIGKVLGRKHTLLANNGFAISAALLMACSLQAGAFEMLIVGRFIMGIDGGVALSVLPMYLSEISPKEIRGSLGQVTAIFICIGVFTGQLLGLPELLGKESTWPYLFGVIVVPAVVQLLSLPFLPDSPRYLLLEKHNEARAVKAFQTFLGKADVSQEVEEVLAESRVQRSIRLVSVLELLRAPYVRWQVVTVIVTMACYQLCGLNAIWFYTNSIFGKAGIPPAKIPYVTLSTGGIETLAAVFSGLVIEHLGRRPLLIGGFGLMGLFFGTLTITLTLQDHAPWVPYLSIVGILAIIASFCSGPGGIPFILTGEFFQQSQRPAAFIIAGTVNWLSNFAVGLLFPFIQKSLDTYCFLVFATICITGAIYLYFVLPETKNRTYAEISQAFSKRNKAYPPEEKIDSAVTDGKINGRP [N90Q],with no effect

# Variants of: B2
# Conditions: with itm2b_human ITM2B
row,Variant,effect of a mutation on the interaction
1,MKLSKKDRGEDEESDSAKKKLDWSCSLLVASLAGAFGSSFLYGYNLSVVNAPTPYIKAFYQESWERRHGRPIDPDTLTLLWSVTVSIFAIGGLVGTLIVKMIGKVLGRKHTLLANNGFAISAALLMACSLQAGAFEMLIVGRFIMGIDGGVALSVLPMYLSEISPKEIRGSLGQVTAIFICIGVFTGQLLGLPELLGKESTWPYLFGVIVVPAVVQLLSLPFLPDSPRYLLLEKHNEARAVKAFQTFLGKADVSQEVEEVLAESRVQRSIRLVSVLELLRAPYVRWQVVTVIVTMACYQLCGLNAIWFYTNSIFGKAGIPPAKIPYVTLSTGGIETLAAVFSGLVIEHLGRRPLLIGGFGLMGLFFGTLTITLTLQDHAPWVPYLSIVGILAIIASFCSGPGGIPFILTGEFFQQSQRPAAFIIAGTVNWLSNFAVGLLFPFIQKSLDTYCFLVFATICITGAIYLYFVLPETKNRTYAEISQAFSKRNKAYPPEEKIDSAVTDGKINGRP [N61Q],with no effect

# Variants of: B2
# Conditions: with itm2b_human ITM2B
# Remark: another data set of the same source
row,Variant,effect of a mutation on the interaction
1,MKLSKKDRGEDEESDSAKKKLDWSCSLLVASLAGAFGSSFLYGYNLSVVNAPTPYIKAFYQESWERRHGRPIDPDTLTLLWSVTVSIFAIGGLVGTLIVKMIGKVLGRKHTLLANNGFAISAALLMACSLQAGAFEMLIVGRFIMGIDGGVALSVLPMYLSEISPKEIRGSLGQVTAIFICIGVFTGQLLGLPELLGKESTWPYLFGVIVVPAVVQLLSLPFLPDSPRYLLLEKHNEARAVKAFQTFLGKADVSQEVEEVLAESRVQRSIRLVSVLELLRAPYVRWQVVTVIVTMACYQLCGLNAIWFYTNSIFGKAGIPPAKIPYVTLSTGGIETLAAVFSGLVIEHLGRRPLLIGGFGLMGLFFGTLTITLTLQDHAPWVPYLSIVGILAIIASFCSGPGGIPFILTGEFFQQSQRPAAFIIAGTVNWLSNFAVGLLFPFIQKSLDTYCFLVFATICITGAIYLYFVLPETKNRTYAEISQAFSKRNKAYPPEEKIDSAVTDGKINGRP [N61Q],disrupting interaction strength
